Laboratory results from patent publication US6255088A, “Enzymatic sulfation of biomolecules” (The Scripps Research Institute, priority 1999, dated 2001).

Columns and labels:
[1] = substrate: CC(=O)N[C@H]1[C@H](O[C@H]2[C@H](O)[C@@H](NC(C)=O)C(O)O[C@@H]2CO)O[C@H](CO)[C@@H](O[C@@H]2O[C@H](CO)[C@@H](O)[C@H](O)[C@H]2NC(C)=O)[C@@H]1O; test: purified protein, by the assay type; details: pH 7.0
[2] = substrate: CC(=O)N[C@H]1[C@H](O[C@H]2[C@H](O)[C@@H](NC(C)=O)C(O)O[C@@H]2CO)O[C@H](CO)[C@@H](O[C@@H]2O[C@H](CO)[C@@H](O[C@@H]3O[C@H](CO)[C@@H](O)[C@H](O)[C@H]3NC(C)=O)[C@H](O)[C@H]2NC(C)=O)[C@@H]1O; test: Continuous spectrophotometric coupled-enzyme assay of NodST with βAST-IV PAPS regeneration; assay type: biochemical, Rhizobium melioti; details: other: apparent value, coupled assay, 20 μM PAPS, pH 7.0
Experimental: (§1) 100 mM bis-tris propane-HCl, pH 7.0, 5 mM 2-mercaptoethanol, 20 μM PAPS, 2 mM p-nitrophenyl sulfate, 3.0 mU NodST, 6.4 mU β-AST IV, and substrate are combined to a total volume of 500 μL. Because commercial PAPS contains significant amounts of PAP, the assay solution is incubated for 30 minutes at 20° C. prior to addition of substrate. The evolution of p-nitrophenol is monitored at 400 nm for 10 minutes.
(§2) All reactions were run in a total volume of 500 μL at 25° C. […] The amount of NodST added to each series of acceptor concentrations is varied over 1.2, 1.8, 3.0, and 4.2 mU. Because commercial PAPS contains significant amounts of PAP, the assay solution is incubated for 30 minutes at 20° C. prior to addition of substrate. The evolution of p-nitrophenol is monitored at 400 nm for 10 minutes.
(§3) 3.0 mU of NodST was used in each reaction. The Km for each series of PAP concentrations was calculated and the values were compared.

[3] = substrate: CC(=O)N[C@H]1[C@H](O[C@H]2[C@H](O)[C@@H](NC(C)=O)[C@H](O[C@H]3[C@H](O)[C@@H](NC(C)=O)C(O)O[C@@H]3CO)O[C@@H]2CO)O[C@H](CO)[C@@H](O[C@@H]2O[C@H](CO)[C@@H](O[C@@H]3O[C@H](CO)[C@@H](O)[C@H](O)[C@H]3NC(C)=O)[C@H](O)[C@H]2NC(C)=O)[C@@H]1O; test: as above; assay type: biochemical, Rhizobium melioti; details: other: coupled assay; pH 7.0
Experimental: as §1, §2, §3

[4] = substrate: Nc1ncnc2c1ncn2[C@@H]1O[C@H](COP(=O)(O)O)[C@@H](OP(=O)(O)O)[C@H]1O; test: Reverse-physiological reaction of βAST-IV (PAPS from PAP and p-nitrophenyl sulfate); assay type: biochemical, rat; details: other: 10 mM p-nitrophenyl sulfate, pH 7.0, 25° C., FIG. 6 legend
Experimental: All capillary zone electrophoresis (CZE) was run in 0.23 M borate in running buffer at pH 7.8. The column was pre-washed with H2 O (1 min), 1 N NaOH (1 min), and running buffer (2 min). The sample was pressure injected at 20 psi sec and electrophoresis was run with 20.0 kV (- to +) at 20° C. with detection at 260 nm. CZE of 1 mM standards PAPS, PAP, and 3'-adenosine monophosphate (3'-AMP) were run to determine retention times. The reverse-physiological reaction assay mixture, a 500 μL solution containing 50 mM bis-tris propane-HCl buffer at pH 7.0, 1 mM 2-mercaptoethanol, 10 mM p-nitrophenyl sulfate, and 1 mM PAP at 25° C., was subjected to CZE prior to addition of enzyme (t=0). 5 mU βAST-IV was added and CZE was repeated 30 minutes after initiation. The reaction was then diluted 100-fold and CZE was run again. A 2.0 μL internal standard of 10 mM PAPS was added, and CZE was repeated.
βAST-IV activity in the reverse-physiological reaction was determined at 25° C. with a total volume of 500 μL. The reverse-physiological assay above was used with varying PAP concentration (15.6, 31.3, 62.5, 125, 250, 500 μM). Measurement of initial velocity was conducted over 10 seconds at 400 nm, and an extinction coefficient of 1064 was used to calculate p-nitrophenol concentration at pH 7.0. […]

[5] = other: apparent value, coupled assay, 20 μM PAPS

Row | Protein | Km ([1]; other: 20, 40 and 100 μM PAPS, all three within 10% variation, 3.0 mU NodST) [µM] | Km [1, 5] [µM] | kcat [1, 5] [s⁻¹] | Km [2] [µM] | kcat [2] [s⁻¹] | Km [3] [μμM] | Km [4] [µM]
1 | NodST (Sinorhizobium meliloti 1021) (protein) MTHSTLPPQPFAILAMPRTGTHYLEELVNEHPNVLSNGELLNTYDTNWPDKERLLLSDRELLERAFLRYPPHSDKKVTHVGCKINEPQFQERPSFFAELTAWPGLKVILVIRRNTLESLRSFVQARQTRQWLKFKSDSSAPPPPVMLPFATCEAYFKAADDFHARVVYAFDSSRIRLIEYERLLRDPVPCVATVLDFLGAPALQLADRGILRRQETRPLDQTVRNFHELRVHFANGPYARFFELAND | 243 | 103 | 0.458 | 20.4 ± 3.6 | 0.328 ± 0.013 | 98.1 | –
2 | βAST-IV (Rattus norvegicus) (protein, made in house; host or cells: E. coli BL21(DE3)) MEFSRPPLVHVKGIPLIKYFAETIGPLQNFTAWPDDLLISTYPKSGTTWMSEILDMIYQGGKLEKCGRAPIYARVPFLEFKCPGVPSGLETLEETPAPRLLKTHLPLSLLPQSLLDQKVKVIYIARNAKDVVVSYYNFYNMAKLHPDPGTWDSFLENFMDGEVSYGSWYQHVKEWWELRHTHPVLYLFYEDIKENPKREIKKILEFLGRSLPEETVDSIVHHTSFKKMKENCMTNYTTIPTEIMDHNVSPFMRKGTTGDWKNTFTVAQNERFDAHYAKTMTDCDFKFRCEL | – | – | – | – | – | – | 26.4 ± 3.4
